Biological target: Secretory leukoproteinase inhibitor (human (endogenous in A549)) (UniProt P03973)
Sequence of UniProt P03973 (P03973 26-132): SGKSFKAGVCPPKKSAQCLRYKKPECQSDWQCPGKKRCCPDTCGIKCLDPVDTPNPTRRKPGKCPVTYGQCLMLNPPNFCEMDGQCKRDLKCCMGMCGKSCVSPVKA

SLPI concentration (ELISA) in the lower Transwell compartment of A549 cells, 10 min after 10 nM NE was added to the lower compartment only, as % of control wells: 8.6 % of control
SLPI concentration (ELISA) in the upper Transwell compartment of A549 cells, 10 min after 10 nM NE was added to the upper compartment only, as % of control wells: 10.6 % of control
Substance: neutrophil elastase (from UniProt P08246 30-267) (enzyme)
